The labels stand for the following.
B1: proteinaceous protease inhibitor of SEQ ID NO:26 (protein)
chain: TDTGDHHNQKTDWPELVGKSVEEAPKVILQDKSEAPIAVLPVGTLVTAEAAAARVRLFVDSLDKIAQVPAVG
B2: proteinaceous protease inhibitor of SEQ ID NO:2 (protein)
chain: TDTGDHHNQKTDWPELVGKSVEEAKKVILQDKSEAQIVVLPVGTIVTMEYRIDRVRLFVDSLDKIAQVPRVG
B3: proteinaceous protease inhibitor (BC) of SEQ ID NO:1, wheat-derived subtilisin/chymotrypsin inhibitor (protein)
chain: B2 chain with D12E
B4: proteinaceous protease inhibitor of SEQ ID NO:23 (protein)
chain: B2 chain with D12E, V38A, I52A, D53A
B5: proteinaceous protease inhibitor of SEQ ID NO:4 (protein)
chain: B2 chain with D12E, V38A
B6: proteinaceous protease inhibitor of SEQ ID NO:13 (protein)
chain: B2 chain with D12E, R51K
B7: proteinaceous protease inhibitor of SEQ ID NO:28 (protein)
chain: B2 chain with D12E, Y50G
B8: proteinaceous protease inhibitor of SEQ ID NO:14 (protein)
chain: B2 chain with D12E, R51H
B9: proteinaceous protease inhibitor of SEQ ID NO:8 (protein)
chain: B2 chain with D12E, M48G
B10: proteinaceous protease inhibitor of SEQ ID NO:17 (protein)
chain: B2 chain with D12E, D53E
B11: proteinaceous protease inhibitor of SEQ ID NO:3 (protein)
chain: B2 chain with D12A
B12: proteinaceous protease inhibitor of SEQ ID NO:19 (protein)
chain: B2 chain with D12E, R70A
B13: proteinaceous protease inhibitor of SEQ ID NO:10 (protein)
chain: B2 chain with D12E, Y50L
B14: proteinaceous protease inhibitor of SEQ ID NO:9 (protein)
chain: B2 chain with D12E, Y50A
B15: proteinaceous protease inhibitor of SEQ ID NO:22 (protein)
chain: B2 chain with D12E, V38A, R51A, I52A
B16: proteinaceous protease inhibitor of SEQ ID NO:11 (protein)
chain: B2 chain with D12E, Y50F
B17: proteinaceous protease inhibitor of SEQ ID NO:29 (protein)
chain: B2 chain with D12E, R70N
B18: proteinaceous protease inhibitor of SEQ ID NO:25 (protein)
chain: B2 chain with D12E, V38A, R70A
B19: proteinaceous protease inhibitor of SEQ ID NO:15 (protein)
chain: B2 chain with D12E, I52A
B20: proteinaceous protease inhibitor of SEQ ID NO:27 (protein)
chain: B2 chain with D12K
B21: proteinaceous protease inhibitor of SEQ ID NO:21 (protein)
chain: B2 chain with D12E, R70K
B22: proteinaceous protease inhibitor of SEQ ID NO:5 (protein)
chain: B2 chain with D12E, V38L
B23: proteinaceous protease inhibitor of SEQ ID NO:7 (protein)
chain: B2 chain with D12E, M48A
B24: proteinaceous protease inhibitor of SEQ ID NO:20 (protein)
chain: B2 chain with D12E, R70G
B25: proteinaceous protease inhibitor of SEQ ID NO:12 (protein)
chain: B2 chain with D12E, R51A
B26: proteinaceous protease inhibitor of SEQ ID NO:16 (protein)
chain: B2 chain with D12E, I52V
B27: proteinaceous protease inhibitor of SEQ ID NO:18 (protein)
chain: B2 chain with D12E, D53A
B28: proteinaceous protease inhibitor of SEQ ID NO:24 (protein)
chain: B2 chain with D12E, M48G, R70A
B29: proteinaceous protease inhibitor of SEQ ID NO:40 (protein)
chain: TECGGGGGAKTSWPEVVGLSVEEAKKVILKDKPDADIVVLPVGSVVTADYRPNRVRIFVDIVAQTPHVG
B30: proteinaceous protease inhibitor of SEQ ID NO:30 (protein)
chain: MSSVEKKPEGVNTGAGDRHNLKTAWPELVGKSVEEAKKVILQDKSEAQIIVLPVGTIVTMEYRIDRVRLFVDKLDNIAQVPRVG
B31: proteinaceous protease inhibitor of SEQ ID NO:32 (protein)
chain: B30 chain with A24E, Y62A
B32: proteinaceous protease inhibitor of SEQ ID NO:41 (protein)
chain: B30 chain with A24E
B33: proteinaceous protease inhibitor of SEQ ID NO:36 (protein)
chain: B30 chain with A24E, R82A
B34: proteinaceous protease inhibitor of SEQ ID NO:34 (protein)
chain: B30 chain with A24E, I64A
B35: proteinaceous protease inhibitor of SEQ ID NO:31 (protein)
chain: B30 chain with A24E, I50A
B36: proteinaceous protease inhibitor of SEQ ID NO:35 (protein)
chain: B30 chain with A24E, D65A
B37: proteinaceous protease inhibitor of SEQ ID NO:33 (protein)
chain: B30 chain with A24E, R63A

Numbering of substitutions follows the chain as printed.

37 molecules from patent US20140357543A1 can be followed below.

This assay concerns the target T1, alcalase (trade name "Alcalase 2.5L", Novozymes) (UniProt P00780).
T1 sequence (looked up): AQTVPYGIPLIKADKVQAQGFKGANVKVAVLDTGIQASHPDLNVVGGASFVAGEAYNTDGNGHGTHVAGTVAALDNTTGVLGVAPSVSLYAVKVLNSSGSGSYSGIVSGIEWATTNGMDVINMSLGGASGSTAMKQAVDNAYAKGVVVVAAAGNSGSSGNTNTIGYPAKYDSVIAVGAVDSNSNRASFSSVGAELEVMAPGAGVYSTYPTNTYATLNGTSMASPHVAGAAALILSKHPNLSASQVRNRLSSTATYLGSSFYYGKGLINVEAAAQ
Kind of assay: cell-based or functional assay.
Consider B1, for which the Protease activity upon dilution (%) immediately after preparation amounted to 85% and the Remaining activity (%) immediately after preparation was 19%.
B2 returned a Protease activity upon dilution (%) immediately after preparation of 100% and a Remaining activity (%) immediately after preparation of 10%.
For B3, the Protease activity upon dilution (%) immediately after preparation came to 10% and the Remaining activity (%) immediately after preparation worked out at 0%.
For B4 the same measures were 82% and 1%.
As for B5, the Protease activity upon dilution (%) immediately after preparation amounted to 80% and the Remaining activity (%) immediately after preparation stood at 2%.
The molecule B6 displayed a Protease activity upon dilution (%) immediately after preparation of 25% and a Remaining activity (%) immediately after preparation of 4%.
The molecule B7 returned a Protease activity upon dilution (%) immediately after preparation of 90% and a Remaining activity (%) immediately after preparation of 18%.
The corresponding values for B8 are 85% and 5%.
Molecule B9 registered a Protease activity upon dilution (%) immediately after preparation of 85% and a Remaining activity (%) immediately after preparation of 23%.
B10 gave a Protease activity upon dilution (%) immediately after preparation of 95% and a Remaining activity (%) immediately after preparation of 9%.
In turn, B11 gave a Protease activity upon dilution (%) immediately after preparation of 89% and a Remaining activity (%) immediately after preparation of 7%.
B12 came in with a Protease activity upon dilution (%) immediately after preparation of 85% and a Remaining activity (%) immediately after preparation of 2%.
Regarding B13, the Protease activity upon dilution (%) immediately after preparation worked out at 90% and the Remaining activity (%) immediately after preparation was found to be 9%.
For B14 the same measures were 85% and 18%.
For B15 the same measures were 82% and 1%.
B16: the Protease activity upon dilution (%) immediately after preparation came to 90% and the Remaining activity (%) immediately after preparation is 8%.
Molecule B17 gave a Protease activity upon dilution (%) immediately after preparation of 95% and a Remaining activity (%) immediately after preparation of 19%.
Regarding B18, the Protease activity upon dilution (%) immediately after preparation came out at 80% and the Remaining activity (%) immediately after preparation was found to be 1%.
The molecule B19 returned a Protease activity upon dilution (%) immediately after preparation of 80% and a Remaining activity (%) immediately after preparation of 3%.
For B20, the Protease activity upon dilution (%) immediately after preparation was 98% and the Remaining activity (%) immediately after preparation is 16%.
Molecule B21 came in with a Protease activity upon dilution (%) immediately after preparation of 100% and a Remaining activity (%) immediately after preparation of 13%.
For B22 the same measures were 100% and 11%.
For B23 the same measures were 86% and 25%.
B24 displayed a Protease activity upon dilution (%) immediately after preparation of 100% and a Remaining activity (%) immediately after preparation of 10%.
The corresponding values for B25 are 20% and 2%.
For B26 the same measures were 95% and 9%.
Take B27: the Protease activity upon dilution (%) immediately after preparation turned out to be 85% and the Remaining activity (%) immediately after preparation was 3%.
The corresponding values for B28 are 82% and 20%.
For the molecule B29, the Protease activity upon dilution (%) immediately after preparation came to 100% and the Remaining activity (%) immediately after preparation was 53%.
On to B30, for which the Protease activity upon dilution (%) immediately after preparation was 80% and the Remaining activity (%) immediately after preparation came out at 15%.
B31: the Protease activity upon dilution (%) immediately after preparation worked out at 73% and the Remaining activity (%) immediately after preparation stood at 15%.
The molecule B32 had a Protease activity upon dilution (%) immediately after preparation of 8% and a Remaining activity (%) immediately after preparation of 0%.
As for B33, the Protease activity upon dilution (%) immediately after preparation came to 81% and the Remaining activity (%) immediately after preparation turned out to be 1%.
The corresponding values for B34 are 75% and 1%.
The corresponding values for B35 are 75% and 2%.
For B36, the Protease activity upon dilution (%) immediately after preparation was found to be 80% and the Remaining activity (%) immediately after preparation turned out to be 2%.
In turn, B37 showed a Protease activity upon dilution (%) immediately after preparation of 18% and a Remaining activity (%) immediately after preparation of 1%.
